In patent publication US20030153066A1:

Target: HIV-1 Gag Pr55 (wild-type) (HIV-1) (UniProt P03348)
Experiment: cell-based or functional assay

Substance | amount of 750S capsid in HP68-immunodepleted cell-free reactions after reconstitution
HuHP68-GST fusion protein (from UniProt P61221 1-599) | 3 fold
WGHP68-GST fusion protein | 3 fold
